Experimental data from patent publication US9029508 (dated 2015).
Values joined by “and” are separate entries in the source; they are usually repeats but may differ in a detail not shown here. Identical values can stand only once.

T1: CD19 (human, UniProt P15391)
T1 chain: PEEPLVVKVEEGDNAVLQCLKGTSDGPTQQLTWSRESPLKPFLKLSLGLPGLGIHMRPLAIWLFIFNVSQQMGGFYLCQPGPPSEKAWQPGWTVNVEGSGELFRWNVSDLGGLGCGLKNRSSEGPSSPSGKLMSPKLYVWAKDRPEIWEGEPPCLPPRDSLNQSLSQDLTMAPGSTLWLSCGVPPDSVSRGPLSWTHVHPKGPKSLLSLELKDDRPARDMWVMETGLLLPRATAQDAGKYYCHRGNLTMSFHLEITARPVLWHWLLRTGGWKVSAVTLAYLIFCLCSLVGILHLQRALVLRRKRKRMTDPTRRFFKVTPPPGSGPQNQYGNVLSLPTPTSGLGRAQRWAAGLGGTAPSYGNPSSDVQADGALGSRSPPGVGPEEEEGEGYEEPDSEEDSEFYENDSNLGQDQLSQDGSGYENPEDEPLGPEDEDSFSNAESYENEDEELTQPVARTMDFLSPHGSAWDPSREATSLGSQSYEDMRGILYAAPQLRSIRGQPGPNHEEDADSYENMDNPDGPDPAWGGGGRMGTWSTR

B1: AB010 (antibody, V domains shown)
VH: QVQLVQSGAEVKKPGASVKVSCKASGYTFTSYDINWVRQATGQGLEWMGWMNPNSGNTGYAQKFQGRVTMTRNTSISTAYMELSSLRSEDTAVYYCARDPYYYYYGMDVWGQGTTVTVSS
VL: QSVLTQPPSVSAAPGQKVTISCSGSSSNIENNHVSWYQQLPGTAPKLLIYDNNKRPSGIPDRFSGSKSGTSATLGITGLQTGDEADYYCETWDTSLSAGRVFGGGTKLTVLG
B2: DVD029 IGF1,2 arm (antibody, V domains shown)
VH: B1 VH
VL: B1 VL
modifications: DVD-Ig inner
B3: DVD030 IGF1,2 arm (antibody, V domains shown)
VH: B1 VH
VL: B1 VL
modifications: DVD-Ig outer
B4: DVD043 DLL4 arm (antibody)
chain 1: EVQLVESGGGLVQPGGSLRLSCAASGFTFTDNWISWVRQAPGKGLEWVGYISPNSGFTYYADSVKGRFTISADTSKNTAYLQMNSLRAEDTAVYYCARDNFGGYFDYWGQGTLVTVSS
chain 2: DIQMTQSPSSLSASVGDRVTITCRASQDVSTAVAWYQQKPGKAPKLLIYSASFLYSGVPSRFSGSGSGTDFTLTISSLQPEDFATTYYCQQSYTGTVTFGQGTKVEIKR
modifications: DVD-Ig inner
B5: DVD044 DLL4 arm (antibody)
chain 1: B4 chain 1
chain 2: B4 chain 2
modifications: DVD-Ig outer
B6: AB062 (antibody, V domains shown)
VH: QVQLQQWGAGLLKPSETLSLTCAVYGGSFSGYYWSWIRQPPGKGLEWIGEINHSGSTNYNPSLKSRVTISVETSKNQFSLKLSSVTAADTAVYYCARDKWTWYFDLWGRGTLVTVSS
VL: not shown
B7: AB063 (antibody, V domains shown)
VH: EVQLVESGGGLVQPGGSLRLSCAASGFTFSIYSMNWVRQAPGKGLEWVSYISSSSSTIYYADSVKGRFTISRDNAKNSLYLQMNSLRDEDTAVYYCARDRGDFDAFDIWGQGTMVTVSS
VL: DIQMTQSPSSLSASVGDRVTITCQASQDITNYLNWYQQKPGKAPKLLIYDASNLETGVPSRFSGSGSGTDFTFTISSLQPEDIATYNCQQCENFPITFGQGTRLEIKR
B8: DVD306 ErbB3 arm (antibody, V domains shown)
VH: B7 VH
VL: B7 VL
modifications: DVD-Ig inner
B9: DVD305 ErbB3 arm (antibody, V domains shown)
VH: B7 VH
VL: B7 VL
modifications: DVD-Ig outer
B10: AB015 (antibody)
chain 1: B4 chain 1
chain 2: B4 chain 2
B11: AB011 (antibody, V domains shown)
VH: EVQLLESGGGLVQPGGSLRLSCTASGFTFSSYAMNWVRQAPGKGLEWVSAISGSGGTTFYADSVKGRFTISRDNSRTTLYLQMNSLRAEDTAVYYCAKDLGWSDSYYYYYGMDVWGQGTTVTVSS
VL: DIQMTQFPSSLSASVGDRVTITCRASQGIRNDLGWYQQKPGKAPKRLIYAASRLHRGVPSRFSGSGSGTEFTLTISSLQPEDFATYYCLQHNSYPCSFGQGTKLEIKR
B12: DVD032 IGF1R arm (antibody, V domains shown)
VH: B11 VH
VL: B11 VL
modifications: DVD-Ig outer
B13: DVD022 IGF1R arm (antibody, V domains shown)
VH: B11 VH
VL: B11 VL
modifications: DVD-Ig outer
B14: DVD002 CD19 arm (antibody, V domains shown)
VH: QVQLQQSGAELVRPGSSVKISCKASGYAFSSYWMNWVKQRPGQGLEWIGQIWPGDGDTNYNGKFKGKATLTADESSSTAYMQLSSLASEDSAVYFCARRETTTVGRYYYAMDYWGQGTSVTVSS
VL: DILLTQTPASLAVSLGQRATISCKASQSVDYDGDSYLNWYQQIPGQPPKLLIYDASNLVSGIPPRFSGSGSGTDFTLNIHPVEKVDAATYHCQQSTEDPWTFGGGTKLEIKR
modifications: DVD-Ig outer
B15: DVD013 CD19 arm (antibody, V domains shown)
VH: B14 VH
VL: B14 VL
modifications: DVD-Ig inner
B16: DVD001 CD19 arm (antibody, V domains shown)
VH: B14 VH
VL: B14 VL
modifications: DVD-Ig inner
B17: DVD014 CD19 arm (antibody, V domains shown)
VH: B14 VH
VL: B14 VL
modifications: DVD-Ig outer
B18: DVD010 CD40 arm (antibody, V domains shown)
VH: QVQLVESGGGVVQPGRSLRLSCAASGFTFSSYGMHWVRQAPGKGLEWVAVISYEESNRYHADSVKGRFTISRDNSKITLYLQMNSLRTEDTAVYYCARDGGIAAPGPDYWGQGTLVTVSS
VL: DIVMTQSPLSLTVTPGEPASISCRSSQSLLYSNGYNYLDWYLQKPGQSPQVLISLGSNRASGVPDRFSGSGSGTDFTLKISRVEAEDVGVYYCMQARQTPFTFGPGTKVDIRR
modifications: DVD-Ig outer
B19: DVD009 CD40 arm (antibody, V domains shown)
VH: B18 VH
VL: B18 VL
modifications: DVD-Ig inner
B20: AB009 (antibody, V domains shown)
VH: B18 VH
VL: B18 VL

target: T2, IGF2 (human, UniProt P01344); experiment: SPR

Row | Kd | Binder
1 | < 0.000299 nM and 0.000423 nM | B1
2 | 0.302 nM | B2
3 | 0.00234 nM | B3

target: T3, DLL4 (human, UniProt Q9NR61); experiment: ELISA
T3 sequence (Q9NR61 27-524): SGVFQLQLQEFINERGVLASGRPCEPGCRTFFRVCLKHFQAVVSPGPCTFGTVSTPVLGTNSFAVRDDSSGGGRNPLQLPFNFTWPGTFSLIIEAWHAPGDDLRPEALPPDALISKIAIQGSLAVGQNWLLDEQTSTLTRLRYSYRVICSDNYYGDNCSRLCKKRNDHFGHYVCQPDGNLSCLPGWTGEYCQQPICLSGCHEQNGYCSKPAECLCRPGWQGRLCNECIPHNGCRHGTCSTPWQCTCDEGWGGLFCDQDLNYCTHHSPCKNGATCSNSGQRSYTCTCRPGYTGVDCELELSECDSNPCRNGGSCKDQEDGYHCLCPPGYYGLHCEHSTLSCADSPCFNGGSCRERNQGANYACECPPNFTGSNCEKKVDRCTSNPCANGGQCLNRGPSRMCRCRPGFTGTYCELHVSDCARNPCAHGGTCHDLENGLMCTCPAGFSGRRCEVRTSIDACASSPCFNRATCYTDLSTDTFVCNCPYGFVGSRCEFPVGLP

Row | EC50 | Binder
4 | 0.67 nM | B4
5 | 0.25 nM | B5

target: T4, ErbB3 (human, UniProt P21860); experiment: ELISA

Row | EC50 | Binder
6 | 1.93 nM | B6
7 | 0.28 nM | B7
8 | 151 nM | B8
9 | 0.44 nM | B9

target: T5, IGF1 (human, UniProt P05019); experiment: ELISA

Row | EC50 | Binder
10 | 4.77 nM | B1
11 | 229 nM | B2
12 | 1.75 nM | B3

target: T2, IGF2; experiment: ELISA

Row | EC50 | Binder
13 | 10 nM and 18.1 nM | B1
14 | 206 nM | B2
15 | 5.5 nM | B3

target: T3, DLL4; experiment: ELISA; remark: another data set of the same source

Row | EC50 | Binder
16 | 0.31 nM | B10
17 | 2.12 nM | B4
18 | 0.53 nM | B5

target: T5, IGF1; experiment: SPR

Row | Kd | Binder
19 | 0.388 nM | B1
20 | 6.36 nM | B2
21 | 0.292 nM | B3

target: T3, DLL4; experiment: SPR

Row | Kd | Binder
22 | 0.414 nM | B10
23 | 2.32 nM | B4
24 | 0.347 nM | B5

target: T6, IGF1R (human, UniProt P08069); experiment: ELISA

Row | EC50 | Binder
25 | 0.28 nM | B11
26 | 0.16 nM | B12
27 | 0.26 nM | B13

target: T2, IGF2; experiment: ELISA; remark: another data set of the same source

Row | EC50 | Binder
28 | 18.1 nM and 10 nM | B1
29 | 206 nM | B2
30 | 5.49 nM | B3

target: T4, ErbB3; experiment: SPR

Row | Kd | Binder
31 | 1.36 nM | B6
32 | 0.15 nM | B7
33 | 0.0603 nM | B9

target: T3, DLL4; experiment: ELISA; remark: another data set of the same source

Row | EC50 | Binder
34 | 0.03 nM | B10
35 | 0.5 nM | B4
36 | 0.06 nM | B5

Target: T1, CD19
Experiment: ELISA

Row | EC50 | Binder
37 | 0.07 nM | B14
38 | 7.29 nM | B15
39 | 12.9 nM | B16
40 | 0.12 nM | B17

target: T5, IGF1; experiment: ELISA; remark: another data set of the same source

Row | EC50 | Binder
41 | 4.8 nM | B1
42 | 229 nM | B2
43 | 1.8 nM | B3

target: T4, ErbB3; experiment: ELISA; remark: another data set of the same source

Row | EC50 | Binder
44 | 0.26 nM | B6
45 | 0.67 nM | B7
46 | > 10 nM | B8
47 | 1.16 nM | B9

target: CD40 (human, UniProt P25942); experiment: ELISA
Sequence (P25942 21-193): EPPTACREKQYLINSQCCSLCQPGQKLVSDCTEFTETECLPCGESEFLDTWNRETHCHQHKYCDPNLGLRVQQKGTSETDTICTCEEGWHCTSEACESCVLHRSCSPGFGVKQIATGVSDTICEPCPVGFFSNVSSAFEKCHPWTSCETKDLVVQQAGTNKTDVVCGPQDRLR

Row | EC50 | Binder
48 | 0.82 nM | B18
49 | 3.55 nM | B19
50 | 0.99 nM | B20

target: T3, DLL4; experiment: competition

Row | IC50 | Binder
51 | 0.37 nM and 0.4 nM | B10
52 | 13.1 nM | B4
53 | 0.5 nM | B5

target: T6, IGF1R; experiment: ELISA; remark: another data set of the same source

Row | EC50 | Binder
54 | 0.3 nM | B11
55 | 0.2 nM | B12
56 | 0.3 nM | B13

target: T6, IGF1R; experiment: SPR

Row | Kd | Binder
57 | 0.848 nM | B11
58 | 0.829 nM | B12
59 | 0.778 nM | B13
